Laboratory results reported in patent US20100260668A1 (published 2010).

biological target: T1, DLL4 ECD His tag (UniProt Q9NR61 27-529, limits assumed); experiment: SPR (Biacore), DVD-Ig captured, DLL4 as analyte
T1 construct: extracellular domain; also called DLL ECD His tag

Row | Binder | Kd [nM] | koff [s⁻¹] | kon [M⁻¹ s⁻¹]
1 | DVD516 (bispecific antibody, human IgG1, lambda, Outer AB071 (VEGF), inner AB073 (DLL4); HC linker short, LC linker short; also called DVD-Ig DVD516) heavy: not shown light: DIQMTQSPSSLSASVGDRVTITCRASQVIRRSLAWYQQKPGKAPKLLIYAASNLASGVPSRFSGSGSGTDFTLTISSLQPEDFATYYCQQSNTSPLTFGQGTKVEIKRTVAAPQAVVTQESALTTSPGETVTLTCRSSTGAVTTSNYANWVQEKPDHLFTGLIGGTNNRAPGVPARFSGSLIGDKAALTITGAQTEDEAIYFCALWYSNHWVFGGGTKLTVLGQPKAAPSVTLFPPSSEELQANKATLVCLISDFYPGAVTVAWKADSSPVKAGVETTTPSKQSNNKYAASSYLSLTPEQWKSHRSYSCQVTHEGSTVEKTVAPTECS | 4.99 | 0.000583 | 117000
2 | DVD528 (bispecific antibody, human IgG1, lambda, Outer AB071 (VEGF), inner AB073 (DLL4); HC linker long, LC linker short; also called DVD-Ig DVD528) heavy: not shown light: DIQMTQSPSSLSASVGDRVTITCRASQVIRRSLAWYQQKPGKAPKLLIYAASNLASGVPSRFSGSGSGTDFTLTISSLQPEDFATYYCQQSNTSPLTFGQGTKVEIKRTVAAPQAVVTQESALTTSPGETVTLTCRSSTGAVTTSNYANWVQEKPDHLFTGLIGGTNNRAPGVPARFSGSLIGDKAALTITGAQTEDEAIYFCALWYSNHWVFGGGTKLTVLGQPKAAPSVTLFPPSSEELQANKATLVCLISDFYPGAVTVAWKADSSPVKAGVETTTPSKQSNNKYAASSYLSLTPEQWKSHRSYSCQVTHEGSTVEKTVAPTECS | 4.81 | 0.00152 | 316000
3 | DVD452 (bispecific antibody, human IgG1, kappa, L234A L235A, Outer AB071 (VEGF), inner AB069 (DLL4); HC linker long, LC linker long; also called DVD-Ig DVD452) heavy: not shown light: DIQMTQSPSSLSASVGDRVTITCRASQVIRRSLAWYQQKPGKAPKLLIYAASNLASGVPSRFSGSGSGTDFTLTISSLQPEDFATYYCQQSNTSPLTFGQGTKVEIKRTVAAPSVFIFPPDIVMTQSPDSLAVSLGERATISCRASESVDNYGISFMKWFQQKPGQPPKLLIYAASNQGSGVPDRFSGSGSGTDFTLTISSLQAEDVAVYYCQQSKEVPWTFGGGTKVEIKRTVAAPSVFIFPPSDEQLKSGTASVVCLLNNFYPREAKVQWKVDNALQSGNSQESVTEQDSKDSTYSLSSTLTLSKADYEKHKVYACEVTHQGLSSPVTKSFNRGEC | 9.3 | 0.00022 | 23700
4 | DVD464 (bispecific antibody, human IgG1, kappa, Outer AB071 (VEGF), inner AB069 (DLL4); HC linker short, LC linker long; also called DVD-Ig DVD464) heavy: not shown light: DIQMTQSPSSLSASVGDRVTITCRASQVIRRSLAWYQQKPGKAPKLLIYAASNLASGVPSRFSGSGSGTDFTLTISSLQPEDFATYYCQQSNTSPLTFGQGTKVEIKRTVAAPSVFIFPPDIVMTQSPDSLAVSLGERATISCRASESVDNYGISFMKWFQQKPGQPPKLLIYAASNQGSGVPDRFSGSGSGTDFTLTISSLQAEDVAVYYCQQSKEVPWTFGGGTKVEIKRTVAAPSVFIFPPSDEQLKSGTASVVCLLNNFYPREAKVQWKVDNALQSGNSQESVTEQDSKDSTYSLSSTLTLSKADYEKHKVYACEVTHQGLSSPVTKSFNRGEC | 5.53 | 0.000182 | 32800
5 | DVD480 (bispecific antibody, human IgG1, kappa, Outer AB071 (VEGF), inner AB015 (DLL4); HC linker long, LC linker short; also called DVD-Ig DVD480) heavy: not shown light: DIQMTQSPSSLSASVGDRVTITCRASQVIRRSLAWYQQKPGKAPKLLIYAASNLASGVPSRFSGSGSGTDFTLTISSLQPEDFATYYCQQSNTSPLTFGQGTKVEIKRTVAAPDIQMTQSPSSLSASVGDRVTITCRASQDVSTAVAWYQQKPGKAPKLLIYSASFLYSGVPSRFSGSGSGTDFTLTISSLQPEDFATTYYCQQSYTGTVTFGQGTKVEIKRTVAAPSVFIFPPSDEQLKSGTASVVCLLNNFYPREAKVQWKVDNALQSGNSQESVTEQDSKDSTYSLSSTLTLSKADYEKHKVYACEVTHQGLSSPVTKSFNRGEC | 3.38 | 0.000179 | 53000

Continued, values first:

Row | Kd [nM] | koff [s⁻¹] | kon [M⁻¹ s⁻¹] | Binder
6 | 1.04 |  |  | DVD474 (bispecific antibody, human IgG1, kappa, Outer AB071 (VEGF), inner AB015 (DLL4); HC linker long, LC linker long; also called DVD-Ig DVD474) heavy: not shown light: DIQMTQSPSSLSASVGDRVTITCRASQVIRRSLAWYQQKPGKAPKLLIYAASNLASGVPSRFSGSGSGTDFTLTISSLQPEDFATYYCQQSNTSPLTFGQGTKVEIKRTVAAPSVFIFPPDIQMTQSPSSLSASVGDRVTITCRASQDVSTAVAWYQQKPGKAPKLLIYSASFLYSGVPSRFSGSGSGTDFTLTISSLQPEDFATTYYCQQSYTGTVTFGQGTKVEIKRTVAAPSVFIFPPSDEQLKSGTASVVCLLNNFYPREAKVQWKVDNALQSGNSQESVTEQDSKDSTYSLSSTLTLSKADYEKHKVYACEVTHQGLSSPVTKSFNRGEC
7 | 2.13 |  |  | DVD486 (bispecific antibody, human IgG1, kappa, Outer AB071 (VEGF), inner AB015 (DLL4); HC linker short, LC linker long; also called DVD-Ig DVD486) heavy: not shown light: DIQMTQSPSSLSASVGDRVTITCRASQVIRRSLAWYQQKPGKAPKLLIYAASNLASGVPSRFSGSGSGTDFTLTISSLQPEDFATYYCQQSNTSPLTFGQGTKVEIKRTVAAPSVFIFPPDIQMTQSPSSLSASVGDRVTITCRASQDVSTAVAWYQQKPGKAPKLLIYSASFLYSGVPSRFSGSGSGTDFTLTISSLQPEDFATTYYCQQSYTGTVTFGQGTKVEIKRTVAAPSVFIFPPSDEQLKSGTASVVCLLNNFYPREAKVQWKVDNALQSGNSQESVTEQDSKDSTYSLSSTLTLSKADYEKHKVYACEVTHQGLSSPVTKSFNRGEC
8 | 5.81 | 0.000169 | 29100 | DVD446 (bispecific antibody, human IgG1, kappa, Outer AB071 (VEGF), inner AB069 (DLL4); HC linker short, LC linker short; also called DVD-Ig DVD446) heavy: not shown light: DIQMTQSPSSLSASVGDRVTITCRASQVIRRSLAWYQQKPGKAPKLLIYAASNLASGVPSRFSGSGSGTDFTLTISSLQPEDFATYYCQQSNTSPLTFGQGTKVEIKRTVAAPDIVMTQSPDSLAVSLGERATISCRASESVDNYGISFMKWFQQKPGQPPKLLIYAASNQGSGVPDRFSGSGSGTDFTLTISSLQAEDVAVYYCQQSKEVPWTFGGGTKVEIKRTVAAPSVFIFPPSDEQLKSGTASVVCLLNNFYPREAKVQWKVDNALQSGNSQESVTEQDSKDSTYSLSSTLTLSKADYEKHKVYACEVTHQGLSSPVTKSFNRGEC
9 | 16.2 | 0.000261 | 16100 | DVD458 (bispecific antibody, human IgG1, kappa, L234A L235A, Outer AB071 (VEGF), inner AB069 (DLL4); HC linker long, LC linker short; also called DVD-Ig DVD458) heavy: not shown light: DIQMTQSPSSLSASVGDRVTITCRASQVIRRSLAWYQQKPGKAPKLLIYAASNLASGVPSRFSGSGSGTDFTLTISSLQPEDFATYYCQQSNTSPLTFGQGTKVEIKRTVAAPDIVMTQSPDSLAVSLGERATISCRASESVDNYGISFMKWFQQKPGQPPKLLIYAASNQGSGVPDRFSGSGSGTDFTLTISSLQAEDVAVYYCQQSKEVPWTFGGGTKVEIKRTVAAPSVFIFPPSDEQLKSGTASVVCLLNNFYPREAKVQWKVDNALQSGNSQESVTEQDSKDSTYSLSSTLTLSKADYEKHKVYACEVTHQGLSSPVTKSFNRGEC
10 | 10.5 | 0.00121 | 115000 | DVD522 (bispecific antibody, human IgG1, kappa, lambda, L234A L235A, Outer AB071 (VEGF), inner AB073 (DLL4); HC linker long, LC linker long; also called DVD-Ig DVD522) heavy: not shown light: DIQMTQSPSSLSASVGDRVTITCRASQVIRRSLAWYQQKPGKAPKLLIYAASNLASGVPSRFSGSGSGTDFTLTISSLQPEDFATYYCQQSNTSPLTFGQGTKVEIKRTVAAPSVFIFPPQAVVTQESALTTSPGETVTLTCRSSTGAVTTSNYANWVQEKPDHLFTGLIGGTNNRAPGVPARFSGSLIGDKAALTITGAQTEDEAIYFCALWYSNHWVFGGGTKLTVLGQPKAAPSVTLFPPSSEELQANKATLVCLISDFYPGAVTVAWKADSSPVKAGVETTTPSKQSNNKYAASSYLSLTPEQWKSHRSYSCQVTHEGSTVEKTVAPTECS
11 | 5.78 | 0.002 | 346000 | DVD534 (bispecific antibody, human IgG1, kappa, lambda, L234A L235A, Outer AB071 (VEGF), inner AB073 (DLL4); HC linker short, LC linker long; also called DVD-Ig DVD534) heavy: not shown light: DIQMTQSPSSLSASVGDRVTITCRASQVIRRSLAWYQQKPGKAPKLLIYAASNLASGVPSRFSGSGSGTDFTLTISSLQPEDFATYYCQQSNTSPLTFGQGTKVEIKRTVAAPSVFIFPPQAVVTQESALTTSPGETVTLTCRSSTGAVTTSNYANWVQEKPDHLFTGLIGGTNNRAPGVPARFSGSLIGDKAALTITGAQTEDEAIYFCALWYSNHWVFGGGTKLTVLGQPKAAPSVTLFPPSSEELQANKATLVCLISDFYPGAVTVAWKADSSPVKAGVETTTPSKQSNNKYAASSYLSLTPEQWKSHRSYSCQVTHEGSTVEKTVAPTECS
